Laboratory results: patent US20190127478A1 (published 2019)

How the values were obtained:
Assay in all cases: Octet RED 96
FcRn = molecular target: FcRn
FcgRIa = molecular target: FcgRIa
FcgRIIIaV = molecular target: FcgRIIIaV

Kd (FcRn): 9.6 nM
Kd (FcgRIa): 750 nM
Kd (FcgRIIIaV): 740 nM
B1: BCD-100 IgG1* (antibody)
heavy: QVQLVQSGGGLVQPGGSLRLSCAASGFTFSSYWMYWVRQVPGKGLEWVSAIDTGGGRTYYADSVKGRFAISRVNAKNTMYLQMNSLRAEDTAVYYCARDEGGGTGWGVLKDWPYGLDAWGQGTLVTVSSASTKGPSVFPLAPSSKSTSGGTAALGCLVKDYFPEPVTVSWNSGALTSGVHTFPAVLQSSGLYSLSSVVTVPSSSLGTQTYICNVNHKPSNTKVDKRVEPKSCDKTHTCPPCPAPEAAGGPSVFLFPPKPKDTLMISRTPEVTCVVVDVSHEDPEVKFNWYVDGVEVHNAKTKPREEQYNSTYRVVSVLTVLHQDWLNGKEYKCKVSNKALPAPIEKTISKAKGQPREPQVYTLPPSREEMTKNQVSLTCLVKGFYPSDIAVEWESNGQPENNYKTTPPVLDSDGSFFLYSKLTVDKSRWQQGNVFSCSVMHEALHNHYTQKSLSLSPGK
light: QPVLTQPLSVSVALGQTARITCGGNNIGSKNVHWYQQKPGQAPVLVIYRDSNRPSGIPERFSGSNSGNTATLTISRAQAGDEADYYCQVWDSSTAVFGTGTKLTVLQRTVAAPSVFIFPPSDEQLKSGTASVVCLLNNFYPREAKVQWKVDNALQSGNSQESVTEQDSKDSTYSLSSTLTLSKADYEKHKVYACEVTHQGLSSPVTKSFNRGEC
